We go through 45 variants from the Human Domainome abundance scans (Beltran et al. 2025).

First the molecules themselves.
B1: Neutrophil cytosol factor 2, residues 456 to 514; numbered along this chain, P19878 (parent)
chain: LKKGSQVEALFSYEATQPEDLEFQEGDIILVLSKVNEEWLEGECKGKVGIFPKVFVEDC

± gives the uncertainty stated by the source.

The variants in the series derive from B1. Briefly: abundance fitness (aPCA) (normalised: wild type 0, dead -1); higher = more abundant; growth selection in yeast, the domain comes from the species named. The note with it: Homo sapiens.
Turning to LKKGSLVEALFSYEATQPEDLEFQEGDIILVLSKVNEEWLEGECKGKVGIFPKVFVEDC [Q6L], the abundance fitness was determined as 0.437 ± 0.095. LKKGSPVEALFSYEATQPEDLEFQEGDIILVLSKVNEEWLEGECKGKVGIFPKVFVEDC [Q6P]: the abundance fitness was -0.924 ± 0.37.

On to LKKGSWVEALFSYEATQPEDLEFQEGDIILVLSKVNEEWLEGECKGKVGIFPKVFVEDC [Q6W], for which the abundance fitness came to 0.367 ± 0.16. Under LKKGSKVEALFSYEATQPEDLEFQEGDIILVLSKVNEEWLEGECKGKVGIFPKVFVEDC [Q6K] stands 0.157 ± 0.14; under LKKGSQVEALFSYEATQPEDLEFQEGDIILVLSKVNEEWLEGECKGKVGIFPKVFVRDC [E57R], 0.865 ± 0.091; under LKKGSQVEALFSYEATQPEDLEFQEGDIIWVLSKVNEEWLEGECKGKVGIFPKVFVEDC [L30W], -0.513 ± 0.33.

Regarding LKKGSQPEALFSYEATQPEDLEFQEGDIILVLSKVNEEWLEGECKGKVGIFPKVFVEDC [V7P], the abundance fitness was -0.506 ± 0.27. For LKKGSQMEALFSYEATQPEDLEFQEGDIILVLSKVNEEWLEGECKGKVGIFPKVFVEDC [V7M] the value was -0.99 ± 0.5. Take LKKGSQVEALFSYEATQPEDLEFQEGDIILVLSKVNEEWLEGENKGKVGIFPKVFVEDC [C44N]: the abundance fitness was -0.924 ± 0.2. For LKKGSQVEALFSYEATQPEDLEFQEGDIILVLEKVNEEWLEGECKGKVGIFPKVFVEDC [S33E] the value was -0.786 ± 0.28; for LKKGSQVEALFSYEATQPEDLEFQEGDIILVLFKVNEEWLEGECKGKVGIFPKVFVEDC [S33F], -0.291 ± 0.13; for LKKGSQVEALFSYEATQPEDLEFQEGDIILVLWKVNEEWLEGECKGKVGIFPKVFVEDC [S33W], -0.366 ± 0.2. For LKKGSQVEALFSYEATQPEDLEFQEGDIILVHSKVNEEWLEGECKGKVGIFPKVFVEDC [L32H] the value was 0.166 ± 0.1; for LKSGSQVEALFSYEATQPEDLEFQEGDIILVLSKVNEEWLEGECKGKVGIFPKVFVEDC [K3S], -0.474 ± 0.25. As to LKYGSQVEALFSYEATQPEDLEFQEGDIILVLSKVNEEWLEGECKGKVGIFPKVFVEDC [K3Y], the abundance fitness is -0.479 ± 0.37. For LKKGSQVEALFSYEATQPEDLEFQEGDIILRLSKVNEEWLEGECKGKVGIFPKVFVEDC [V31R] the value was -0.581 ± 0.16; for LKKGSQVEALFSYEATQPEDLEFQEGDIILHLSKVNEEWLEGECKGKVGIFPKVFVEDC [V31H], -0.369 ± 0.14. With LKKGSQVEALFSYEATQPEDLEFQEGDAILVLSKVNEEWLEGECKGKVGIFPKVFVEDC [I28A], the abundance fitness is -0.179 ± 0.13. Regarding LKKGSQVEALFSYEATQPEDLEFQEGDMILVLSKVNEEWLEGECKGKVGIFPKVFVEDC [I28M], the abundance fitness was -0.065 ± 0.13. LKKGSQVEALFSYEATQPEDLEFQEGDGILVLSKVNEEWLEGECKGKVGIFPKVFVEDC [I28G]: the abundance fitness is -0.245 ± 0.095. For LKKGSQVEALFSYEATQPEDLHFQEGDIILVLSKVNEEWLEGECKGKVGIFPKVFVEDC [E22H] the value was -0.191 ± 0.22; for LKKGSQVEALFSYEATQPEDLIFQEGDIILVLSKVNEEWLEGECKGKVGIFPKVFVEDC [E22I], -0.795 ± 0.26. Consider LKKGSQVEALFSYEATQPEDLEFQEGDIILVLSKVNEEWLEGECKGKVGIFPHVFVEDC [K53H], for which the abundance fitness was -0.928 ± 0.24. For LKKGSQVEALFDYEATQPEDLEFQEGDIILVLSKVNEEWLEGECKGKVGIFPKVFVEDC [S12D] the value was -0.139 ± 0.13. For LKKGSQVEALFKYEATQPEDLEFQEGDIILVLSKVNEEWLEGECKGKVGIFPKVFVEDC [S12K] the value was -0.609 ± 0.3; for LKKGSQVEALFSYEATQPEDLEFQEGDIILVLSKVNEEWLEGECKGDVGIFPKVFVEDC [K47D], -0.858 ± 0.21; for LKKGSQVEALFSYEATQPEDLEFQEGDIILVLSKVNEEWLEGECKGLVGIFPKVFVEDC [K47L], -0.361 ± 0.094. For LKKGSQVEALFSYEATQPEDLEFQEGDIILVLSKVNEEWLEGECKGKVGIFPKVFGEDC [V56G] the value was -0.713 ± 0.13; for LKKGSQVEALFSYEATQPEDLEFQEGDIILVLSKVNEEWLEGECKGKVGIFPKVFYEDC [V56Y], -0.574 ± 0.14; for LKKGSQVEALFSYEATQPEDLEFQEGDIILVLSKVNEEWLEGECKGKVGIFPKVFAEDC [V56A], -0.719 ± 0.18. As for LKKGSQVEALFSYVATQPEDLEFQEGDIILVLSKVNEEWLEGECKGKVGIFPKVFVEDC [E14V], the abundance fitness is 0.027 ± 0.089. Under LKKGSQVEALFSYNATQPEDLEFQEGDIILVLSKVNEEWLEGECKGKVGIFPKVFVEDC [E14N] stands 0.074 ± 0.11.

Take YKKGSQVEALFSYEATQPEDLEFQEGDIILVLSKVNEEWLEGECKGKVGIFPKVFVEDC [L1Y]: the abundance fitness worked out at 0.581 ± 0.32. For LKKGSQVEALFSYEATQPEDLEFQEGDIILVLSKVNEEWLEGECKGKVGIFPKVFVEKC [D58K] the value was 0.351 ± 0.26. For LKKGSQVEALFSYEATQPEDLEFQEGDIILVLSKVNEEWLEGECKGKVGIFPKVFVEGC [D58G] the value was 0.392 ± 0.13; for LKKGSQVEALFSIEATQPEDLEFQEGDIILVLSKVNEEWLEGECKGKVGIFPKVFVEDC [Y13I], -0.487 ± 0.1; for LKKGSQVEALFSEEATQPEDLEFQEGDIILVLSKVNEEWLEGECKGKVGIFPKVFVEDC [Y13E], -0.499 ± 0.34.

On to LKKGSQVEALFSYEATQPEDLEFQEGDIILVLSKVNEEWLEGACKGKVGIFPKVFVEDC [E43A], for which the abundance fitness was -0.035 ± 0.17. For LKKGSQVEALFSYEATQPEDLEFQEGDIILVLSKVNEEWLEGTCKGKVGIFPKVFVEDC [E43T] the value was -0.163 ± 0.11. For LKKGSQVEALFSYEATQPEGLEFQEGDIILVLSKVNEEWLEGECKGKVGIFPKVFVEDC [D20G] the value was -0.125 ± 0.092; for LKKGSQVEALFSYEATQPEDLEFQEGDIILVLSKVNEEWLEEECKGKVGIFPKVFVEDC [G42E], -0.237 ± 0.21; for LKKGSQVEALFSYEATQPEDLEFQEGDIILVLSKVNEEWLEGECKGKNGIFPKVFVEDC [V48N], -0.334 ± 0.15.

Consider LKKRSQVEALFSYEATQPEDLEFQEGDIILVLSKVNEEWLEGECKGKVGIFPKVFVEDC [G4R], for which the abundance fitness was -0.535 ± 0.27. Regarding LKKGSQVEALFSYEATQPEDLEFQEGDIPLVLSKVNEEWLEGECKGKVGIFPKVFVEDC [I29P], the abundance fitness is 0.271 ± 0.19.

On to LKKGSQVEALFSYEATQPEDLEFQEGDICLVLSKVNEEWLEGECKGKVGIFPKVFVEDC [I29C], for which the abundance fitness is -0.497 ± 0.12.
